Read-outs that look alike come from different tables or passages of the source. Where no end group is shown, it is not given here. The star is where a group is joined. Succinimide(1-Et,3-yl) = CCN1C(=O)CC(*)C1=O
How the values were obtained:
[1] = molecular target: T1, recombinant nidogen (Mus musculus (Mouse)) (UniProt P10493); assay: radioligand competition assay: non-labeled fragment P1 varied, 0.2 nM recombinant nidogen, 125I-laminin fragment P1
T1 sequence: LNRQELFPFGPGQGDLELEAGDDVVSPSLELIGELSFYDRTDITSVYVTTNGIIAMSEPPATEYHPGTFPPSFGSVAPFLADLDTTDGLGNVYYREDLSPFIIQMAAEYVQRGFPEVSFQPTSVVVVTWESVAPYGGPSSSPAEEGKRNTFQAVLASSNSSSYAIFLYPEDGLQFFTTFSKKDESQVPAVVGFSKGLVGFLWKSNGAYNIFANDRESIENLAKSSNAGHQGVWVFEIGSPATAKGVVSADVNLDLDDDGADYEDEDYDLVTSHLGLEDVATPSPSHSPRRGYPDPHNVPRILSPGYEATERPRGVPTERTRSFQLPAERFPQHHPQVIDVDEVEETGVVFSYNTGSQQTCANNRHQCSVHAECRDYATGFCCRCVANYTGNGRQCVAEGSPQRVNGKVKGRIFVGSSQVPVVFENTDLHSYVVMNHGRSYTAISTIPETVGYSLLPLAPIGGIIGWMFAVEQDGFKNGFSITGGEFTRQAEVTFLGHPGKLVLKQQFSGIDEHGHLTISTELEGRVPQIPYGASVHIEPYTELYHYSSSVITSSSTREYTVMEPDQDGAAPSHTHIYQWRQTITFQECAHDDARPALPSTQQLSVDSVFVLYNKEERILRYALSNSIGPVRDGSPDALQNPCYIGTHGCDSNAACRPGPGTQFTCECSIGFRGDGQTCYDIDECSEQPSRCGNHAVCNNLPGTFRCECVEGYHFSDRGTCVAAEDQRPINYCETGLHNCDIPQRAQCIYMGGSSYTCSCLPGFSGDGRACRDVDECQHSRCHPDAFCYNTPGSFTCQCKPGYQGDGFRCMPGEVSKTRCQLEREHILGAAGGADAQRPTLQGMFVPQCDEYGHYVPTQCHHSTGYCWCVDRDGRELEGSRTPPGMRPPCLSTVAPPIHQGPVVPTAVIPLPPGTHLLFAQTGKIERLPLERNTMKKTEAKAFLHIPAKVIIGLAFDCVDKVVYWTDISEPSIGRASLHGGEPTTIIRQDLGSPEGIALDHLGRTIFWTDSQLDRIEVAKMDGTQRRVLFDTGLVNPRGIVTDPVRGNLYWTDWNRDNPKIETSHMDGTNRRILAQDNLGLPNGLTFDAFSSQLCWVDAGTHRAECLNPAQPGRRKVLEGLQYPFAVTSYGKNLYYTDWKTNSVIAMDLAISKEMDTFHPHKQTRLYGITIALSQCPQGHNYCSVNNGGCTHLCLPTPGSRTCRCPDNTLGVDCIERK

[2] = molecular target: T1, recombinant nidogen (Mus musculus (Mouse)); assay: as above; remark: listed apart in the source
[3] = molecular target: T1, recombinant nidogen (Mus musculus (Mouse)); assay: radioligand competition assay, average of 14 separate assays: non-labeled fragment P1 varied, 0.2 nM recombinant nidogen, 125I-laminin fragment P1
[4] = molecular target: T1, recombinant nidogen (Mus musculus (Mouse)); assay: radioligand competition assay
[5] = molecular target: T1, recombinant nidogen (Mus musculus (Mouse)); assay: radioligand competition assay: inhibitor varied, 0.2 nM recombinant nidogen, 125I-laminin fragment P1
[6] = molecular target: T2, recombinant nidogen (Mus musculus (Mouse), UniProt P10493); assay: radioligand competition assay, reduced and alkylated against the non-reduced chimera
T2 sequence: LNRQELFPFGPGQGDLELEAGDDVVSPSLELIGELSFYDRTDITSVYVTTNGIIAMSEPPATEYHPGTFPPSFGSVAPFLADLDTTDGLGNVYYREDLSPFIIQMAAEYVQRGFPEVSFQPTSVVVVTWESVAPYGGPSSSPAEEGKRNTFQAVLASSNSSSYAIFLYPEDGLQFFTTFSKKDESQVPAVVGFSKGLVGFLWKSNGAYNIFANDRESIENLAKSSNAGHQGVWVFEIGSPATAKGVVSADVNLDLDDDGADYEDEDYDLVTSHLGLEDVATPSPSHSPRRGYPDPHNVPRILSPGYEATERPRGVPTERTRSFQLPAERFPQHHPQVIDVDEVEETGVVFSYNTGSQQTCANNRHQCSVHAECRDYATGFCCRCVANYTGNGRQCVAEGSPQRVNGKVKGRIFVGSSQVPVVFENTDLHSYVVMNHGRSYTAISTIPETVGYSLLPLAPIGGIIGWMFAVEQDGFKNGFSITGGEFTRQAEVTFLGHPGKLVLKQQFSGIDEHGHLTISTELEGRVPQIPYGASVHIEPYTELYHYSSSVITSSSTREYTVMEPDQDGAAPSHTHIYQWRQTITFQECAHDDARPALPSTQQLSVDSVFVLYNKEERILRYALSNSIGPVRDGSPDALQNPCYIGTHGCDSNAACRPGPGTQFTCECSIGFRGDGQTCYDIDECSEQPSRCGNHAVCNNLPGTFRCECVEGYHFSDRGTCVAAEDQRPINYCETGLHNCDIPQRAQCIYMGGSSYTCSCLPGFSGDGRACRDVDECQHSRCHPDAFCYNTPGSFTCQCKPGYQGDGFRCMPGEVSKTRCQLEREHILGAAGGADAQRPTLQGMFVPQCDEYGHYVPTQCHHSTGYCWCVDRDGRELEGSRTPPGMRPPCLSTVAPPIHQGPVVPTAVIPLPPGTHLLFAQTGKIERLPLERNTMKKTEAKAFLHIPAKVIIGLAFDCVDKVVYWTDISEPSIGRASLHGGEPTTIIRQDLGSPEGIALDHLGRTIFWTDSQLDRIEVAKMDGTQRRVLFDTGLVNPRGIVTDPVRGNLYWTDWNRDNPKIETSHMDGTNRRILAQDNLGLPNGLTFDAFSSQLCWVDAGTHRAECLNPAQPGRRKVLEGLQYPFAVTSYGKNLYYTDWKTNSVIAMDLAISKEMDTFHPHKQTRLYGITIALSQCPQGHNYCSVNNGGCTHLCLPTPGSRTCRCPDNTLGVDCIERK
Method: (§1) A radioligand competition assay was used for measurement of relative binding affinities (Mann K. et al. (1988), Eur. J. Biochem., 178, 71–80; Fox, J. W. et al. (1991), EMBO J., 10, 3137–3146). A fixed concentration of recombinant nidogen (0.2 nM) was incubated overnight at 4° C. with inhibitors at varying concentrations, followed by the addition of ^125I-labeled laminin fragment P1 (0.01 nM; 10,000–20,000 c.p.m.) for the same incubation period. Bound and non-bound fragment P1 was then separated by antibodies against nidogen.

[7] = molecular target: T2, recombinant nidogen; assay: radioligand competition assay: inhibitor varied, 0.2 nM recombinant nidogen, 125I-laminin fragment P1
Method: as §1

[8] = molecular target: T2, recombinant nidogen; assay: radioligand competition assay, synthetic heptapeptide variant
Method: as §1

[9] = molecular target: T2, recombinant nidogen; assay: radioligand competition assay: inhibitor varied, 0.2 nM recombinant nidogen, 125I-laminin fragment P1; remark: listed apart in the source
Method: as §1

[10] = molecular target: T2, recombinant nidogen; assay: radioligand competition assay, reduced and alkylated against the non-reduced mutant
Method: as §1

[11] = molecular target: T2, recombinant nidogen; assay: radioligand competition assay; end of the range tied to this mutant by its IC50 in Table IV
Method: as §1

[12] = molecular target: T1, recombinant nidogen (Mus musculus (Mouse)); assay: radioligand competition assay, synthetic heptapeptide variant
[13] = molecular target: T2, recombinant nidogen; assay: radioligand competition assay: inhibitor varied, 0.2 nM recombinant nidogen, 125I-laminin fragment P1; remark: listed apart in the source
Method: as §1

[14] = molecular target: T2, recombinant nidogen; assay: radioligand competition assay
Method: as §1

[15] = molecular target: T2, recombinant nidogen; assay: radioligand competition assay, Tyr-acetylated γ1III3-5
Method: as §1

[16] = molecular target: T2, recombinant nidogen; assay: radioligand competition assay, nitrated γ1III3-5
Method: as §1

laminin fragment P1
IC50 [1]: 0.08 nM
IC50 [2]: 0.05 nM
IC50 [3]: 0.05 nM

γ1III4ab3cd (from UniProt P02468)
fold higher activity than synthetic oxidized loop a,b [4]: 3 fold
further fold decrease in activity against modification of Tyr819 [4]: 30 fold
IC50 [5]: 80 nM

synthetic loop a,b, non-oxidized (792-815) (peptide)
fold higher IC50 than fragment P1 [4]: 5000 fold
IC50 [5]: 400 nM

T1, 792-809 (peptide)
IC50 [5]: 500 nM

γ1III3-5Δ4 (from UniProt P02468)
IC50 [5]: > 3200 nM

γ1III3ab4cd (from UniProt P02468)
IC50 [5]: 1100 nM

IOPNAVGN (S, 799-806) (peptide)
fold loss in activity [4]: 2 fold

B1: γ1III3ab4cd, reduced (other)
chain: PC(Succinimide(1-Et,3-yl))PC(Succinimide(1-Et,3-yl))PGGSSC(Succinimide(1-Et,3-yl))AIVPKTKEVVC(Succinimide(1-Et,3-yl))THC(Succinimide(1-Et,3-yl))IYNTAGFYC(Succinimide(1-Et,3-yl))DRC(Succinimide(1-Et,3-yl))KEGFFGNPLAPNPADKC(Succinimide(1-Et,3-yl))K
fold decrease in activity on reduction and alkylation [6]: 6 fold
IC50 [7]: 6700 nM

NIDQNAV
fold decrease in activity against the heptapeptide NIDPNAV [8]: 3 fold
IC50 [9]: 2400 nM

B2: γ1III4Y819/825-A, reduced (other)
chain: PC(Succinimide(1-Et,3-yl))QC(Succinimide(1-Et,3-yl))NDNIDPNAVGNC(Succinimide(1-Et,3-yl))NRLTGEC(Succinimide(1-Et,3-yl))LKC(Succinimide(1-Et,3-yl))IANTAGFAC(Succinimide(1-Et,3-yl))DRC(Succinimide(1-Et,3-yl))KEGFFGNPLAPNPADKC(Succinimide(1-Et,3-yl))K
fold decrease in activity on reduction and alkylation [10]: ~300 fold
IC50 [7]: 430 nM

B3: γ1III4 (other)
chain: PCQCNDNIDPNAVGNCNRLTGECLKCIYNTAGFYCDRCKEGFFGNPLAPNPADKCK
modifications: disulfide (positions not given here); not fully specified (bridges); also: four disulfide-bonded loops, pairing not given here
IC50 [7]: 0.05 nM

B4: γ1III4Y819/825-A (other)
chain: PCQCNDNIDPNAVGNCNRLTGECLKCIANTAGFACDRCKEGFFGNPLAPNPADKCK
IC50 [7]: 1.5 nM
fold reduction in activity against wild-type γ1III4 [11]: 30 to 60 fold

B5: γ1III4Y825-A (other)
chain: PCQCNDNIDPNAVGNCNRLTGECLKCIYNTAGFACDRCKEGFFGNPLAPNPADKCK
IC50 [7]: 0.06 nM

B6: γ1III4D800-N (other)
chain: PCQCNDNINPNAVGNCNRLTGECLKCIYNTAGFYCDRCKEGFFGNPLAPNPADKCK
IC50 [7]: 1000 nM

B7: γ1III4Y819-A (other)
chain: PCQCNDNIDPNAVGNCNRLTGECLKCIANTAGFYCDRCKEGFFGNPLAPNPADKCK
IC50 [7]: 3 nM
fold reduction in activity against wild-type γ1III4 [11]: 30 to 60 fold

NINPNAV
IC50 [5]: 100000 nM
fold reduction in activity against the heptapeptide NIDPNAV [12]: 100 fold

NVDPNAV
IC50 [9]: 1200 nM

NIDPNVV
fold decrease in activity against the heptapeptide NIDPNAV [8]: 16 fold
IC50 [9]: 16000 nM

NIDPNAV [heptapeptide NIDPNAV (S, 798-804)]
IC50 [13]: 800 nM
IC50 [9]: 900 nM

B8: γ1III3-5, Lys acetylation (other)
chain: PCPCPGGSSCAIVPKTKEVVCTHCPTGTAGKRCELCDDGYFGDPLGSNGPVRLCRPCQCNDNIDPNAVGNCNRLTGECLKCIYNTAGFYCDRCKEGFFGNPLAPNPADKCKACACNPYGTVQQQSSCNPVTGQCQCLPHVSGRDCGTCDPGYYNLQSGQGCE
modifications: lysine amino groups acetylated with acetic acid anhydride
fold decrease in binding activity against unmodified γ1III3-5 [14]: 7 fold
IC50 [13]: 0.27 nM

B9: γ1III3-5, Tyr acetylation (other)
chain: PCPCPGGSSCAIVPKTKEVVCTHCPTGTAGKRCELCDDGYFGDPLGSNGPVRLCRPCQCNDNIDPNAVGNCNRLTGECLKCIYNTAGFYCDRCKEGFFGNPLAPNPADKCKACACNPYGTVQQQSSCNPVTGQCQCLPHVSGRDCGTCDPGYYNLQSGQGCE
modifications: tyrosine hydroxyl groups acetylated with acetic acid anhydride
fold decrease in binding activity against unmodified γ1III3-5 [15]: 75 fold
IC50 [13]: 3 nM

B10: nitrated γ1III3-5 (other)
chain: PCPCPGGSSCAIVPKTKEVVCTHCPTGTAGKRCELCDDGYFGDPLGSNGPVRLCRPCQCNDNIDPNAVGNCNRLTGECLKCIYNTAGFYCDRCKEGFFGNPLAPNPADKCKACACNPYGTVQQQSSCNPVTGQCQCLPHVSGRDCGTCDPGYYNLQSGQGCE
modifications: tyrosines nitrated with tetranitromethane
fold decrease in binding activity against unmodified γ1III3-5 [16]: 75 fold
IC50 [13]: 3 nM

PCQCNDNTDPNAVGNCNRLTGECL (disulfide (positions not given here)) [synthetic loop a,b, oxidized (792-815)]
fold higher IC50 than fragment P1 [14]: 5000 fold
IC50 [13]: 380 nM
IC50 [7]: 270 nM

B11: γ1III4ab3cd, reduced (other)
chain: PC(Succinimide(1-Et,3-yl))QC(Succinimide(1-Et,3-yl))NDNIDPNAVGNC(Succinimide(1-Et,3-yl))NRLTGEC(Succinimide(1-Et,3-yl))LKC(Succinimide(1-Et,3-yl))PTGTAGKRC(Succinimide(1-Et,3-yl))ELC(Succinimide(1-Et,3-yl))DDGYFGDPLGSNGPVRLC(Succinimide(1-Et,3-yl))R
IC50 [7]: 520 nM

Reference: patent publication US5493008A, “Two non-contiguous regions contribute to nidogen binding to a single EGF-like motif of the laminin γ1 chain” (The University Of Virginia Patent Foundation, priority 1994, dated 1996)
